Values joined by “and” are separate entries in the source; they are usually repeats but may differ in a detail not shown here. Equal values may be shown once. Read-outs that look alike come from different tables or passages of the source. Blank lines part the entries; values can stand above or below the substance they belong to.
How the values were obtained:
[1] = target: human CD3 on the cell surface (Jurkat cells, expanded human T cells, Jurkat-Lucia NFAT cells, human PBMC) (human) (UniProt P07766); assay: FACS, Jurkat cells
human CD3 on the cell surface (Jurkat cells, expanded human T cells, Jurkat-Lucia NFAT cells, human PBMC) (human), sequence (P07766 23-207, chain 1 of 3): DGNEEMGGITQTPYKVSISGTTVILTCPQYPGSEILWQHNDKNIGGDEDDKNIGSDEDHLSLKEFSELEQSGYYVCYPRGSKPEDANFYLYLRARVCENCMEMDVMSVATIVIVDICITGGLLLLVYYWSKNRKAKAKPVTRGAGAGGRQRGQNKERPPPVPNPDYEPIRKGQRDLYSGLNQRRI
human CD3 on the cell surface (Jurkat cells, expanded human T cells, Jurkat-Lucia NFAT cells, human PBMC) (human), sequence (P04234 22-171, chain 2 of 3, further chain): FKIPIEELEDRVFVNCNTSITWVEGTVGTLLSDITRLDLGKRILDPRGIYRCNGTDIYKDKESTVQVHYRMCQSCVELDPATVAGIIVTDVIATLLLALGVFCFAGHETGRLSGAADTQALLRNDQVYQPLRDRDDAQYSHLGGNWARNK
human CD3 on the cell surface (Jurkat cells, expanded human T cells, Jurkat-Lucia NFAT cells, human PBMC) (human), sequence (P09693 23-182, chain 3 of 3, further chain): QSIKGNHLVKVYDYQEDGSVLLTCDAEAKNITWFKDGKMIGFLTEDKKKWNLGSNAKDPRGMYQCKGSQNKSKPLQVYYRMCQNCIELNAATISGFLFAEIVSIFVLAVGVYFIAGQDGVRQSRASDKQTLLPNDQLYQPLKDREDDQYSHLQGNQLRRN

[2] = target: human CD3 on the cell surface (Jurkat cells, expanded human T cells, Jurkat-Lucia NFAT cells, human PBMC) (human) (UniProt P07766); assay: FACS, Jurkat cells; remark: listed apart in the source
[3] = target: human CD3 on the cell surface (Jurkat cells, expanded human T cells, Jurkat-Lucia NFAT cells, human PBMC) (human) (UniProt P07766); assay: FACS, Jurkat cells; remark: listed apart in the source
[4] = target: human CD3ε/δ-His (human) (UniProt P07766); assay: ELISA, coated antigen
human CD3ε/δ-His (human), sequence (P07766 23-126, stated change not applied, form in doubt, chain 1 of 2): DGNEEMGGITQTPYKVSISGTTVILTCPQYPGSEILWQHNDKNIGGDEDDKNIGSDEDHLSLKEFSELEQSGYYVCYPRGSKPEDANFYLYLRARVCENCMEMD
human CD3ε/δ-His (human), sequence (P04234 22-105, stated change not applied, form in doubt, chain 2 of 2, further chain): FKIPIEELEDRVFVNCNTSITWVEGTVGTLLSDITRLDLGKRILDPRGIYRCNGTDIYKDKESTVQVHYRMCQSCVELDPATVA

[5] = target: monkey CD3ε protein (monkey) (UniProt Q95LI5); assay: ELISA, coated antigen
monkey CD3ε protein (monkey), sequence (Q95LI5 22-117 limits assumed): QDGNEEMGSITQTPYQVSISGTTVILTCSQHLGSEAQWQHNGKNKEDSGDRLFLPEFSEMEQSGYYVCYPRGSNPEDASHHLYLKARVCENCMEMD

[6] = target: monkey CD3ε/δ-His (monkey) (UniProt Q95LI5); assay: ELISA, coated antigen
monkey CD3ε/δ-His (monkey), sequence (Q95LI5 22-117, stated change not applied, form in doubt, chain 1 of 2): as the sequence (Q95LI5 22-117 limits assumed) above
monkey CD3ε/δ-His (monkey), sequence (Q95LI8 22-105, stated change not applied, form in doubt, chain 2 of 2, further chain): as the sequence (P04234 22-105, stated change not applied, form in doubt, chain 2 of 2, further chain) above, with I5V, N15K, I20V, S32T, D33N, I34N, T64A, S74N, V83L counted along it

[7] = target: recombinant human CD3ε-ECD His protein (human) (UniProt P07766); assay: ELISA, coated antigen
recombinant human CD3ε-ECD His protein (human), sequence (P07766 23-126): as the sequence (P07766 23-126, stated change not applied, form in doubt, chain 1 of 2) above

[8] = target: recombinant human CD3ε-ECD His protein (human) (UniProt P07766); assay: ELISA, coated antigen; remark: listed apart in the source
[9] = target: human CD3 on the cell surface (Jurkat cells, expanded human T cells, Jurkat-Lucia NFAT cells, human PBMC) (human) (UniProt P07766); assay: cell-based or functional assay
[10] = target: human CD3 on the cell surface (Jurkat cells, expanded human T cells, Jurkat-Lucia NFAT cells, human PBMC) (human) (UniProt P07766); assay: cell-based or functional assay; remark: listed apart in the source
[11] = target: human CD3 on the cell surface (Jurkat cells, expanded human T cells, Jurkat-Lucia NFAT cells, human PBMC) (human) (UniProt P07766); assay: cell-based or functional assay; remark: listed apart in the source
[12] = target: human CD3 on the cell surface (Jurkat cells, expanded human T cells, Jurkat-Lucia NFAT cells, human PBMC) (human) (UniProt P07766); assay: cell-based or functional assay; remark: listed apart in the source
[13] = target: human CD3 on the cell surface (Jurkat cells, expanded human T cells, Jurkat-Lucia NFAT cells, human PBMC) (human) (UniProt P07766); assay: FACS, expanded human T cells
[14] = target: human CD3 on the cell surface (Jurkat cells, expanded human T cells, Jurkat-Lucia NFAT cells, human PBMC) (human) (UniProt P07766); assay: FACS, expanded human T cells; remark: listed apart in the source
[15] = target: human CD3 on the cell surface (Jurkat cells, expanded human T cells, Jurkat-Lucia NFAT cells, human PBMC) (human) (UniProt P07766); assay: FACS, expanded human T cells; remark: listed apart in the source
[16] = target: human CD3 on the cell surface (Jurkat cells, expanded human T cells, Jurkat-Lucia NFAT cells, human PBMC) (human) (UniProt P07766); assay: FACS, expanded human T cells; remark: listed apart in the source
[17] = target: cynomolgus monkey CD3 on the surface of expanded monkey T cells (cynomolgus monkey) (UniProt Q95LI5); assay: FACS, expanded monkey T cells
cynomolgus monkey CD3 on the surface of expanded monkey T cells (cynomolgus monkey), sequence (Q95LI5 22-198, chain 1 of 3): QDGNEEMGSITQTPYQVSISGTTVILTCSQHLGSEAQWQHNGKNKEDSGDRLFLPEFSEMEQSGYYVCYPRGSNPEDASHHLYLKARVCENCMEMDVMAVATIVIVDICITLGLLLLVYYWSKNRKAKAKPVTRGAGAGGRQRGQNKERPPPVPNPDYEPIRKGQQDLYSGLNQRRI
cynomolgus monkey CD3 on the surface of expanded monkey T cells (cynomolgus monkey), sequence (Q95LI8 22-171, chain 2 of 3, further chain): as the sequence (P04234 22-171, chain 2 of 3, further chain) above, with I5V, N15K, I20V, S32T, D33N, I34N, T64A, S74N, V83L, H141R counted along it
cynomolgus monkey CD3 on the surface of expanded monkey T cells (cynomolgus monkey), sequence (Q95LI7 23-181, chain 3 of 3, further chain): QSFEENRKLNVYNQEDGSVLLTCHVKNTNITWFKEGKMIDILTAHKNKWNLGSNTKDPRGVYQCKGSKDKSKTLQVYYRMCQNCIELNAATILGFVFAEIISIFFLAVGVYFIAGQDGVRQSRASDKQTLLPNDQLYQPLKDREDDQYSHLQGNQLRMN

[18] = target: cynomolgus monkey CD3 on the surface of expanded monkey T cells (cynomolgus monkey) (UniProt Q95LI5); assay: FACS, expanded monkey T cells; remark: listed apart in the source
[19] = target: cynomolgus monkey CD3 on the surface of expanded monkey T cells (cynomolgus monkey) (UniProt Q95LI5); assay: FACS, expanded monkey T cells; remark: listed apart in the source
[20] = target: cynomolgus monkey CD3 on the surface of expanded monkey T cells (cynomolgus monkey) (UniProt Q95LI5); assay: FACS, expanded monkey T cells, 4 nM antibody
[21] = target: cynomolgus monkey CD3 on the surface of expanded monkey T cells (cynomolgus monkey) (UniProt Q95LI5); assay: FACS, expanded monkey T cells, 20 nM antibody
[22] = target: cynomolgus monkey CD3 on the surface of expanded monkey T cells (cynomolgus monkey) (UniProt Q95LI5); assay: FACS, expanded monkey T cells, 100 nM antibody
[23] = target: human CD3ε/δ-His (human) (UniProt P07766); assay: ELISA, coated antigen, hybridoma screening
[24] = target: monkey CD3ε/δ-His (monkey) (UniProt Q95LI5); assay: ELISA, coated antigen, hybridoma screening

- MFI Max [1]: 151 MFI
- MFI Max [2]: 490 MFI
- Maximum fluorescence value Alexa 647 [2]: 108 MFI
- MFI Max [3]: 182 MFI
- max-OD450 [4]: 0.09 OD450
- max-OD450 [5]: 0.16 OD450
- max-OD450 [6]: 0.15 OD450
- max-OD450 [7]: 0.11 OD450
- max-OD450 [8]: 0.09 OD450
- Maximum response value (RLU) [9]: 1830 RLU
- Maximum response value (RLU) [10]: 2330 RLU
- Maximum response value (RLU) [11]: 4250 RLU
- Maximum response value (RLU) [12]: 3780 RLU
- EC50 [13]: 19.9 nM
- MFI Max [13]: 823 MFI
- Maximum fluorescence value Alexa 647 [13]: 480 MFI
- max MFI [13]: 2250 MFI
- MFI Max [14]: 148 MFI
- MFI Max [15]: 195 MFI
- MFI Max [16]: 124 MFI
- MFI Max [17]: 87 MFI
- Maximum fluorescence value Alexa 647 [17]: 299 MFI
- max MFI [17]: 74 MFI
- MFI Max [18]: 1570 MFI
- MFI Max [19]: 195 MFI
- MFI at antibody concentration 4 nM [20]: 64 MFI
- MFI at antibody concentration 20 nM [21]: 80 MFI
- MFI at antibody concentration 100 nM [22]: 170 MFI
Substance: anti-hel-hIgG1 (negative control antibody against Hen Egg Lysozyme)

- OD450 [23]: 0.05 OD450 and 0.04 OD450
- OD450 [24]: 0.07 OD450 and 0.04 OD450 and 0.05 OD450
Substance: anti-hel-mIgG1 (negative control antibody against Hen Egg Lysozyme)
